Assay results: the supplement of paper PMC9112550, “Optimization of the antimicrobial peptide Bac7 by deep mutational scanning” (BMC Biology, 2022)

Tested on: Escherichia coli TOP10
Experiment: shrunken log2 fold change of peptide-encoding DNA abundance (4.5 h post-induction vs induction); higher = less antimicrobial activity (less host growth inhibition)
Details: time post-induction: 4.5 h; library: site-saturation at positions 5, 18, 19, 20
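Also: peptides expressed intracellularly from a pBAD plasmid library in pooled LB shake-flask culture, induced with 0.3% L-arabinose, DNA abundance read by NGS, three biological replicates, DESeq2 with apeglm shrinkage.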

| Sequence | shrunken log2 fold change |
| --- | --- |
| RRIRSRPPRLPRPRPRPSTNPRP | -0.546 |
| RRIRSRPPRLPRPRPRPSTTPRP | -0.433 |
| RRIRSRPPRLPRPRPRPSWAPRP | -0.0813 |
| RRIRSRPPRLPRPRPRPSWKPRP | -0.0985 |
| RRIRSRPPRLPRPRPRPSWTPRP | -0.299 |
| RRIRSRPPRLPRPRPRPTALPRP | 0.14 |
| RRIRSRPPRLPRPRPRPTCCPRP | 0.164 |
| RRIRSRPPRLPRPRPRPTDTPRP | -0.214 |
| RRIRSRPPRLPRPRPRPTEYPRP | -0.206 |
| RRIRSRPPRLPRPRPRPTFWPRP | 0.536 |
| RRIRSRPPRLPRPRPRPTGCPRP | 0.159 |
| RRIRSRPPRLPRPRPRPTGDPRP | 0.353 |
| RRIRSRPPRLPRPRPRPTGPPRP | -0.0769 |
| RRIRSRPPRLPRPRPRPTHAPRP | 0.368 |
| RRIRSRPPRLPRPRPRPTHDPRP | 0.221 |
| RRIRSRPPRLPRPRPRPTHTPRP | 0.106 |
| RRIRSRPPRLPRPRPRPTIAPRP | 0.105 |
| RRIRSRPPRLPRPRPRPTLWPRP | 0.448 |
| RRIRSRPPRLPRPRPRPTNCPRP | 0.0777 |
| RRIRSRPPRLPRPRPRPTNYPRP | -0.44 |
| RRIRSRPPRLPRPRPRPTPIPRP | 0.0944 |
| RRIRSRPPRLPRPRPRPTPPPRP | 0.43 |
| RRIRSRPPRLPRPRPRPTVHPRP | -0.0989 |
| RRIRSRPPRLPRPRPRPTWWPRP | 0.422 |
| RRIRSRPPRLPRPRPRPVARPRP | 0.148 |

| Sequence | shrunken log2 fold change |
| --- | --- |
| RRIRSRPPRLPRPRPRPVCKPRP | -0.0891 |
| RRIRSRPPRLPRPRPRPVCNPRP | 0.413 |
| RRIRSRPPRLPRPRPRPVEEPRP | 0.0884 |
| RRIRSRPPRLPRPRPRPVGFPRP | 0.334 |
| RRIRSRPPRLPRPRPRPVGLPRP | 0.107 |
| RRIRSRPPRLPRPRPRPVHCPRP | -0.258 |
| RRIRSRPPRLPRPRPRPVHEPRP | -0.185 |
| RRIRSRPPRLPRPRPRPVHTPRP | 0.0158 |
| RRIRSRPPRLPRPRPRPVHVPRP | -0.0394 |
| RRIRSRPPRLPRPRPRPVMGPRP | -0.0522 |
| RRIRSRPPRLPRPRPRPVNMPRP | -0.103 |
| RRIRSRPPRLPRPRPRPVPMPRP | 1.32 |
| RRIRSRPPRLPRPRPRPVQGPRP | 0.108 |
| RRIRSRPPRLPRPRPRPVRHPRP | -0.0103 |
| RRIRSRPPRLPRPRPRPVRTPRP | -0.0647 |
| RRIRSRPPRLPRPRPRPVSVPRP | 0.0162 |
| RRIRSRPPRLPRPRPRPVSWPRP | 0.437 |
| RRIRSRPPRLPRPRPRPVTEPRP | -0.0851 |
| RRIRSRPPRLPRPRPRPVTMPRP | -0.312 |
| RRIRSRPPRLPRPRPRPVTRPRP | -0.538 |
| RRIRSRPPRLPRPRPRPVVLPRP | 0.124 |
| RRIRSRPPRLPRPRPRPVYRPRP | -0.398 |
| RRIRSRPPRLPRPRPRPWAVPRP | -0.0517 |
| RRIRSRPPRLPRPRPRPWCEPRP | -0.291 |
| RRIRSRPPRLPRPRPRPWDCPRP | -0.00801 |

| Sequence | shrunken log2 fold change |
| --- | --- |
| RRIRSRPPRLPRPRPRPWEQPRP | -0.208 |
| RRIRSRPPRLPRPRPRPWFAPRP | -0.00302 |
| RRIRSRPPRLPRPRPRPWFTPRP | -0.253 |
| RRIRSRPPRLPRPRPRPWFVPRP | -0.36 |
| RRIRSRPPRLPRPRPRPWGPPRP | 0.101 |
| RRIRSRPPRLPRPRPRPWICPRP | -0.15 |
| RRIRSRPPRLPRPRPRPWIHPRP | -0.338 |
| RRIRSRPPRLPRPRPRPWISPRP | 0.181 |
| RRIRSRPPRLPRPRPRPWIWPRP | 0.341 |
| RRIRSRPPRLPRPRPRPWKIPRP | -0.0842 |
| RRIRSRPPRLPRPRPRPWLFPRP | -0.183 |
| RRIRSRPPRLPRPRPRPWLNPRP | -0.119 |
| RRIRSRPPRLPRPRPRPWMTPRP | -0.000334 |
| RRIRSRPPRLPRPRPRPWQMPRP | 0.0651 |
| RRIRSRPPRLPRPRPRPWRVPRP | 0.108 |
| RRIRSRPPRLPRPRPRPWSNPRP | -0.0394 |
| RRIRSRPPRLPRPRPRPWSTPRP | -0.696 |
| RRIRSRPPRLPRPRPRPWTGPRP | -0.105 |
| RRIRSRPPRLPRPRPRPWTHPRP | -0.373 |
| RRIRSRPPRLPRPRPRPWTPPRP | -0.154 |
| RRIRSRPPRLPRPRPRPWYFPRP | -0.85 |
| RRIRSRPPRLPRPRPRPWYVPRP | -0.36 |
| RRIRSRPPRLPRPRPRPYAIPRP | -0.228 |
| RRIRSRPPRLPRPRPRPYESPRP | -0.26 |
| RRIRSRPPRLPRPRPRPYGIPRP | 0.104 |
